Measured values published in patent US20230121197A1, “ANTIBODIES SPECIFICALLY BINDING THE CARBOXYMETHYLATED CATALYTIC SUBUNIT OF PROTEIN PHOSPHATASE 2A” (Medizinische Universität Wien, priority 2020, published 2023).

Key:
[1] = system: PP4; assay: Summary of cross-reactivities of C-terminal PP2Ac antibodies (Table 4), PP4; conditions: antibodies screened for binding methylated PP2Ac
Description: Examples of antibodies with a preference for non-methylated PP2Ac are mouse monoclonal antibody 4B7 (Yu (2001), Mol Biol Cell 12, 185-199), mouse monoclonal antibody 1D7 generated by the Ogris lab but also the rabbit monoclonal E155 antibody from Abeam and the mouse monoclonal F-8 from SCBT that were thought to be specific for pTyr^307.

[2] = molecular target: T1, PP6c C-terminal peptide meL305, ac-IPPRTTTPYFL-CH3 (α-carboxymethylated) (human, SMILES …); assay: ELISA, peptide coated at 2 µg/ml, hybridoma supernatant 1:50, values normalized to meL309, N=7
T1 construct: also called PP6 meLeu305
T1 peptide: Ac-IPPRTTTPYFL-OMe
Description: (§1) FIG. 9: Monoclonal antibody 7C10-C5 detects α-carboxymethylated PP2Ac C-terminal peptides with >10-fold higher signal intensity than the α-carboxymethylated PP4c and PP6c C-terminal peptides in ELISA. Nunc Medisorp 96-well ELISA flat-bottom plates were coated with PP2Ac peptides L309 (ac-[…]) (SEQ ID NO:18), meL309 (ac-[…]-CH3) (SEQ ID NO:18), PP4c peptides L307 (ac-[…]) (SEQ ID NO:20), meL307 (ac-[…]-CH₃) (SEQ ID NO:20), PP6c peptides L305 (ac-[…]) (SEQ ID NO:22) or meL305 (ac-[…]-CH₃) (SEQ ID NO:22) at 2 μg/ml in TBS or TBS only (Neg) at 4° C. over-night. After washing once with TBS, the wells were incubated with 2% BSA in TBS for 1 h at RT. After washing once with TBS, the wells were incubated with single clone hybridoma cell culture supernatant, clone 7C10-C5 1:50 for 1 h at RT. After washing twice with TBS, wells were incubated with anti-mouse and anti rabbit HRP-coupled secondary antibody for 1 h at RT, followed by washing 3× in PBS. Bound antibodies were detected by colorimetric reaction with 3,3′,5,5′-Tetramethylbenzidine as substrate, and absorbance was measured at 450 nm. Values were normalized to meL309 which was set to 1. Average and standard deviation of N=7 experiments are shown. […] Statistical significance was assessed using ANOVA followed by Tukey's HSD as a post-hoc test. […]

[3] = molecular target: T2, PP4c C-terminal peptide meL307, ac-PSKKPVADYFL-CH3 (α-carboxymethylated) (human, SMILES …); assay: as above
T2 construct: also called mePP4c; PP4 Me
T2 peptide: Ac-PSKKPVADYFL-OMe
Description: as §1

B1: 7C10-C5: α-carboxymethylation specific mouse monoclonal IgG1 antibody from single clone hybridoma 7C10-C5 (DSM ACC3350) (antibody)
heavy: MYRMQLLSCIALSLALVTNSDVQLQESGPGLVKPSQSLSLTCSVTGYSITSGYYWNWIRQFPGNKLEWMGYISYDGSNNYNPSLKNRISITRDTSKNQFFLKLNSVTTEDTATYYCAGRFAYWGQGTLVTVSAAKTTAPSVYPLAPVCGDTTGSSVTLGCLVKGYFPEPVTLTWNSGSLSSGVHTFPAVLQSDLYTLSSSVTVTSSTWPSQSITCNVAHPASSTKVDKKIEPRGPTIKPCPPCKCPAPNLLGGPSVFIFPPKIKDVLMISLSPIVTCVVVDVSEDDPDVQISWFVNNVEVHTAQTQTHREDYNSTLRVVSALPIQHQDWMSGKEFKCKVNNKDLPAPIERTISKPKGSVRAPQVYVLPPPEEEMTKKQVTLTCMVTDFMPEDIYVEWTNNGKTELNYKNTEPVLDSDGSYFMYSKLRVEKKNWVERNSYSCSVVHEGLHNHHTTKSFSRTPGK
light: MDMRVPAQLLGLLLLWLSGARCDVLMTQTPLSLPVSLGDQASISCRSSQSIVHSNGNTYLEWYLQKPGQSPKLLIYKVSNRFSGVPDRFSGSGSGTDFTLKINRVEAEDLGVYYCFQGSHVPWTFGGGTKLEIKADAAPTVSIFPPSSEQLTSGGASVVCFLNNFYPKDINVKWKIDGSERQNGVLNSWTDQDSKDSTYSMSSTLTLTKDEYERHNSYTCEATHKTSTSPIVKSFNRNEC
modifications: Amino acid sequence of the recombinant 7C10-C5 heavy chain; Amino acid sequence of the recombinant 7C10-C5 light chain
PP4 meLeu^307 [1]: — (— <15%)

B2: 7C10-C5 monoclonal antibody (antibody, V domains shown)
VH: DVQLQESGPGLVKPSQSLSLTCSVTGYSITSGYYWNWIRQFPGNKLEWMGYISYDGSNNYNPSLKNRISITRDTSKNQFFLKLNSVTTEDTATYYCAGRFAYWGQGTLVTVSA
VL: DVLMTQTPLSLPVSLGDQASISCRSSQSIVHSNGNTYLEWYLQKPGQSPKLLIYKVSNRFSGVPDRFSGSGSGTDFTLKINRVEAEDLGVYYCFQGSHVPWTFGGGTKLEIK
notes: Used as hybridoma culture supernatant (ELISA, Western blot, IHC) or at 50 µg/mL (SPR); also called 7C10 X63; clone 7C10-C5
fold-change of ELISA signal, meL309 (PP2A) over meL305 (PP6) [2]: 16.2 fold | fold-change of ELISA signal, meL309 (PP2A) over meL307 (PP4) [3]: 10.1 fold
